Measurements as given in publication PMC11548754, “DRN facilitates WUS transcriptional regulatory activity by chromatin remodeling to regulate shoot stem cell homeostasis in Arabidopsis” (PLOS Biology, 2024).

T1: GST-BRM (Arabidopsis, UniProt Q6EVK6 1-976)
T1 construct: The pull-down methods call it GST-BRM; also called BRAHMA; source: E. coli BL21 (DE3), purified (glutathione resin); not shown: GST, N-terminal, kept
T1 sequence (looked up): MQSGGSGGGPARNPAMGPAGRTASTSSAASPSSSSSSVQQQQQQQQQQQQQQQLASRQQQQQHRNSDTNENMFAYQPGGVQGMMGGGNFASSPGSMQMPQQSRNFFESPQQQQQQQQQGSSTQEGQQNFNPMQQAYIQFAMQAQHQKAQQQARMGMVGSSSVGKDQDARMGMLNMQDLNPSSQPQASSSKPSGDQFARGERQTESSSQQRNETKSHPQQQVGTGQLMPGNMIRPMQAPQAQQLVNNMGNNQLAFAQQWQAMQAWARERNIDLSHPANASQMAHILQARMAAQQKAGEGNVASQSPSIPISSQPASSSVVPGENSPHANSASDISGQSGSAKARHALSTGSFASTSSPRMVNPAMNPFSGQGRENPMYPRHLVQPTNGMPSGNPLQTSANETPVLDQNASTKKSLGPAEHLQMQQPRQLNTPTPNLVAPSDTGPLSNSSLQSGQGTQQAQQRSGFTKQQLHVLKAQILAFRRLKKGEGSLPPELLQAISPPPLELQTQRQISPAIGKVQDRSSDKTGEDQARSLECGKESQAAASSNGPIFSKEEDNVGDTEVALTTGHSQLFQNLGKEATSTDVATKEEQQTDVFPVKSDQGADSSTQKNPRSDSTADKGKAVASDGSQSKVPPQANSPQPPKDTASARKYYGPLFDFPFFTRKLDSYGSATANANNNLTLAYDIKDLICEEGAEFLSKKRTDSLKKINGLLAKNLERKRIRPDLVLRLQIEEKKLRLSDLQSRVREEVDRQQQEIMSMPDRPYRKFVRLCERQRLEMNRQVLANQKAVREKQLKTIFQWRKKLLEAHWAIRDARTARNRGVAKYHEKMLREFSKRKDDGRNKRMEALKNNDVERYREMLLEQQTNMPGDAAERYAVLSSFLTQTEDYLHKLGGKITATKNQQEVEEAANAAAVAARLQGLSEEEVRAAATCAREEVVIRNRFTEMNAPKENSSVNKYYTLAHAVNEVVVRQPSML

B1: GST-WUS (natural protein, Arabidopsis, UniProt Q9SB92 1-292, looked up)
chain: MEPPQHQHHHHQADQESGNNNNNKSGSGGYTCRQTSTRWTPTTEQIKILKELYYNNAIRSPTADQIQKITARLRQFGKIEGKNVFYWFQNHKARERQKKRFNGTNMTTPSSSPNSVMMAANDHYHPLLHHHHGVPMQRPANSVNVKLNQDHHLYHHNKPYPSFNNGNLNHASSGTECGVVNASNGYMSSHVYGSMEQDCSMNYNNVGGGWANMDHHYSSAPYNFFDRAKPLFGLEGHQEEEECGGDAYLEHRRTLPLFPMHGEDHINGGSGAIWKYGQSEVRPCASLELRLN
notes: also called WUSCHEL; glutathione-S-transferase (GST)-WUS; source: E. coli BL21 (DE3), purified (glutathione resin); for EMSA also size-exclusion chromatography; not shown: GST, N-terminal, kept
B2: 8His-MBP-DRN (natural protein)
chain: not shown
notes: also called DORNRÖSCHEN; source: E. coli BL21 (DE3), purified (Ni resin); for EMSA also size-exclusion chromatography; not shown: 8His, N-terminal, kept; MBP, N-terminal, kept

Key:
8His-MBP-DRN = target: B2; assay: native gel or EMSA; EMSA with biotin-labelled CLV3 promoter probe (−1,090 to −1,064); GST-WUS alone or with 8His-MBP-DRN; super-shift; settings: both partners purified
[1] = target: the molecule itself; assay: pull-down; competition: agarose beads with 8His-MBP-WUS incubated with soluble GST-WUS for 6 h before soluble 8His-MBP-DRN was added; binding group without DRN
GST-BRM = target: T1, GST-BRM; assay: pull-down; beads loaded with protein and soluble protein rotated at 4°C for 4 h in pull-down buffer (200 mM NaCl, 1 mM EDTA, 20 mM Tris-HCl, 0.15 mM PMSF, pH 8.0); blots with anti-GST and anti-His; settings: both partners purified

Sequence of 8His-MBP-DRN (Q9SAD4 whole entry): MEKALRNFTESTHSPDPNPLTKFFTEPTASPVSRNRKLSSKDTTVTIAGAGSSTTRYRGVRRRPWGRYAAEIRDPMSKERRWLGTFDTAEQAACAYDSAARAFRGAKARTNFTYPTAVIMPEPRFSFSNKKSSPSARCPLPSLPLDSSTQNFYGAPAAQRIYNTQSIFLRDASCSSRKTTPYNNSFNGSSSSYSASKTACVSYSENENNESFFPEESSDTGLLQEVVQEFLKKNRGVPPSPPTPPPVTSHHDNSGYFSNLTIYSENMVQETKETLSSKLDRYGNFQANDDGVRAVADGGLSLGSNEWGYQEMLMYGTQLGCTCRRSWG

Row | Binder | binding result (8His-MBP-DRN) | binding result [1] | binding result (GST-BRM)
1 | B1 | binds | binds | 
2 | B2 |  |  | binds
